Data as given in US20250076311A1 (Chugai, published 2025).

T1: cynomolgus monkey FcγRIIIaS extracellular domain with C-terminal His-tag (cynomolgus monkey, UniProt Q8SPW2 21-206 at identity 1.00))
T1 construct: also called cyno FcgRIIIaS; cynoFcγRIIIaS
T1 chain: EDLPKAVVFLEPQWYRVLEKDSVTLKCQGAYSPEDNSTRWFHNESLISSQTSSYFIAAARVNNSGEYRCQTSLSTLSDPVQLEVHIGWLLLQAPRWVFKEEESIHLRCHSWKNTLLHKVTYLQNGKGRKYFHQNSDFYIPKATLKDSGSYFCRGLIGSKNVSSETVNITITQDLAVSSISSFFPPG

T2: cynomolgus monkey FcγRIIa3 extracellular domain with C-terminal His-tag (cynomolgus monkey)
T2 construct: also called cyno FcgRIIa3; cynoFcγRIIa3
T2 chain: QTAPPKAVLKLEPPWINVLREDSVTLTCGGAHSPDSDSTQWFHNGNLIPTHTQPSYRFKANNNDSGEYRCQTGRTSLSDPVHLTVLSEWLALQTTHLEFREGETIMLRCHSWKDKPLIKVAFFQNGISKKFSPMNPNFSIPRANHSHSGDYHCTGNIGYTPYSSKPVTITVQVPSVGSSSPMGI

T3: human FcγRIIaR extracellular domain with C-terminal His-tag (human, UniProt P12318 34-217)
T3 construct: also called human FcgRIIaR; FcγRIIa (type R)
T3 chain: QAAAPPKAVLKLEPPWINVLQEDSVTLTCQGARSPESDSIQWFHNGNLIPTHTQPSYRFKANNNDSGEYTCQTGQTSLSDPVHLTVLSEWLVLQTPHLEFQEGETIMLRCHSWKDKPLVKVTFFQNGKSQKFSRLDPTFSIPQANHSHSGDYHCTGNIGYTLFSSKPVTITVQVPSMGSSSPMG

T4: cynomolgus monkey FcγRIIa2 extracellular domain with C-terminal His-tag (cynomolgus monkey)
T4 construct: also called cyno FcgRIIa2; cynoFcγRIIa2
T4 chain: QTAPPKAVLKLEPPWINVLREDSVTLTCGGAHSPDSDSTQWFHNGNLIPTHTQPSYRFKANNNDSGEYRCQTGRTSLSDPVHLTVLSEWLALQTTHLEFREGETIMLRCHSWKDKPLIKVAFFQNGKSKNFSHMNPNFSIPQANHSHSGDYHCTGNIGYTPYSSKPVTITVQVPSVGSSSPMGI

T5: cynomolgus monkey FcγRIIb extracellular domain with C-terminal His-tag (cynomolgus monkey)
T5 construct: also called cyno FcgRIIb; cynoFcγRIIb
T5 chain: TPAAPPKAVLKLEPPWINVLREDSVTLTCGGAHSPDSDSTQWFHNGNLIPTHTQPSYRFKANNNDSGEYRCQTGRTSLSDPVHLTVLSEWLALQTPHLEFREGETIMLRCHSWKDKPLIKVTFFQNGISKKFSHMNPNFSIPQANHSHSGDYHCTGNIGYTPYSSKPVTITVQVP

B1: M103205H795-MY536/M103202L889-SK1 (antibody, human IgG1, kappa, name in EU numbering)
heavy: QVTLKESGPVLVKPTETLTLTCTVSGIDLSHDDISWVRQAPGKGLEWVGIISYAGSTYYASWAKGRLTISKDTSKNQVVLTMTNMDPVDTATYYCARGVPAYSHGGDLWGQGTLVTVSSASTKGPSVFPLAPSSKSTSGGTAALGCLVKDYFPEPVTVSWNSGALTSGVHTFPAVLQSSGLYSLSSVVTVPSSSLGTQTYICNVNHKPSNTKVDKKVEPKSCDKTHTCPPCPGPEWLTGPVVFLFPPKPKDTLMISRTPEVTCVVVDVSDEDPEVKFNWYVDGVEVHNAKTKPREEQYNSTYRVVSVLTVLHQDWLNGKEYKCKVSNKALPKPIEKTISKAKGQPREPQVYTLPPSREEMTKNQVSLTCLVKGFYPSDIAVEWESNGQPENNYKTTPPVLDSDGSFFLYSKLTVDKSRWQQGNVFSCSVMHEALHNHYTQKSLSLSP
light: DIVMTQSPATLSLSPGERATLSCTSSQSVYHANWLSWFQQKPGQPPKLLIYWASTLAYGVPSRFSGSGSGTDFTLTISSLQPEDAATYYCAGGYGGGRYAFGQGTKVEIKRTVAAPSVFIFPPSDEQLKSGTASVVCLLNNFYPREAKVQWKVDNALQSGNSQESVTEQDSKDSTYSLSSTLTLSKADYEKHKVYACEVTHQGLSSPVTKSFNRGEC
notes: copies: 2 + 2
B2: M103205H795-MY451/M103202L889-SK1 (antibody, human IgG1, kappa)
heavy: QVTLKESGPVLVKPTETLTLTCTVSGIDLSHDDISWVRQAPGKGLEWVGIISYAGSTYYASWAKGRLTISKDTSKNQVVLTMTNMDPVDTATYYCARGVPAYSHGGDLWGQGTLVTVSSASTKGPSVFPLAPSSKSTSGGTAALGCLVKDYFPEPVTVSWNSGALTSGVHTFPAVLQSSGLYSLSSVVTVPSSSLGTQTYICNVNHKPSNTKVDKKVEPKSCDKTHTCPPCPANELLTGPSVFLFPPKPKDTLMISRTPEVTCVVVDVSDEDPEVKFNWYVDGVEVHNAKTKPREEQYNSTYRVVSVLTVLHQDWLNGKEYKCKVSNKALPKPIEKTISKAKGQPREPQVYTLPPSREEMTKNQVSLTCLVKGFYPSDIAVEWESNGQPENNYKTTPPVLDSDGSFFLYSKLTVDKSRWQQGNVFSCSVMHEALHNHYTQKSLSLSP
light: DIVMTQSPATLSLSPGERATLSCTSSQSVYHANWLSWFQQKPGQPPKLLIYWASTLAYGVPSRFSGSGSGTDFTLTISSLQPEDAATYYCAGGYGGGRYAFGQGTKVEIKRTVAAPSVFIFPPSDEQLKSGTASVVCLLNNFYPREAKVQWKVDNALQSGNSQESVTEQDSKDSTYSLSSTLTLSKADYEKHKVYACEVTHQGLSSPVTKSFNRGEC
notes: Substitutions in EU numbering on SG1
B3: M103205H795-MY465/M103202L889-SK1 (antibody)
heavy: QVTLKESGPVLVKPTETLTLTCTVSGIDLSHDDISWVRQAPGKGLEWVGIISYAGSTYYASWAKGRLTISKDTSKNQVVLTMTNMDPVDTATYYCARGVPAYSHGGDLWGQGTLVTVSSASTKGPSVFPLAPSSKSTSGGTAALGCLVKDYFPEPVTVSWNSGALTSGVHTFPAVLQSSGLYSLSSVVTVPSSSLGTQTYICNVNHKPSNTKVDKKVEPKSCDKTHTCPPCPKPELLTGPSVFLFPPKPKDTLMISRTPEVTCVVVDVSDEDPEVKFNWYVDGVEVHNAKTKPREEQYNSTYRVVSVLTVLHQDWLNGKEYKCKVSNKALPKPIEKTISKAKGQPREPQVYTLPPSREEMTKNQVSLTCLVKGFYPSDIAVEWESNGQPENNYKTTPPVLDSDGSFFLYSKLTVDKSRWQQGNVFSCSVMHEALHNHYTQKSLSLSP
light: DIVMTQSPATLSLSPGERATLSCTSSQSVYHANWLSWFQQKPGQPPKLLIYWASTLAYGVPSRFSGSGSGTDFTLTISSLQPEDAATYYCAGGYGGGRYAFGQGTKVEIKRTVAAPSVFIFPPSDEQLKSGTASVVCLLNNFYPREAKVQWKVDNALQSGNSQESVTEQDSKDSTYSLSSTLTLSKADYEKHKVYACEVTHQGLSSPVTKSFNRGEC
notes: as for B2
B4: M103205H795-MY467/M103202L889-SK1 (antibody, human IgG1, kappa)
heavy: QVTLKESGPVLVKPTETLTLTCTVSGIDLSHDDISWVRQAPGKGLEWVGIISYAGSTYYASWAKGRLTISKDTSKNQVVLTMTNMDPVDTATYYCARGVPAYSHGGDLWGQGTLVTVSSASTKGPSVFPLAPSSKSTSGGTAALGCLVKDYFPEPVTVSWNSGALTSGVHTFPAVLQSSGLYSLSSVVTVPSSSLGTQTYICNVNHKPSNTKVDKKVEPKSCDKTHTCPPCPMPELLTGPSVFLFPPKPKDTLMISRTPEVTCVVVDVSDEDPEVKFNWYVDGVEVHNAKTKPREEQYNSTYRVVSVLTVLHQDWLNGKEYKCKVSNKALPKPIEKTISKAKGQPREPQVYTLPPSREEMTKNQVSLTCLVKGFYPSDIAVEWESNGQPENNYKTTPPVLDSDGSFFLYSKLTVDKSRWQQGNVFSCSVMHEALHNHYTQKSLSLSP
light: DIVMTQSPATLSLSPGERATLSCTSSQSVYHANWLSWFQQKPGQPPKLLIYWASTLAYGVPSRFSGSGSGTDFTLTISSLQPEDAATYYCAGGYGGGRYAFGQGTKVEIKRTVAAPSVFIFPPSDEQLKSGTASVVCLLNNFYPREAKVQWKVDNALQSGNSQESVTEQDSKDSTYSLSSTLTLSKADYEKHKVYACEVTHQGLSSPVTKSFNRGEC
notes: as for B2
B5: M103205H795-MY445/M103202L889-SK1 (antibody, human IgG1, kappa)
heavy: QVTLKESGPVLVKPTETLTLTCTVSGIDLSHDDISWVRQAPGKGLEWVGIISYAGSTYYASWAKGRLTISKDTSKNQVVLTMTNMDPVDTATYYCARGVPAYSHGGDLWGQGTLVTVSSASTKGPSVFPLAPSSKSTSGGTAALGCLVKDYFPEPVTVSWNSGALTSGVHTFPAVLQSSGLYSLSSVVTVPSSSLGTQTYICNVNHKPSNTKVDKKVEPKSCDKTHTCPPCPAGELLTGPSVFLFPPKPKDTLMISRTPEVTCVVVDVSDEDPEVKFNWYVDGVEVHNAKTKPREEQYNSTYRVVSVLTVLHQDWLNGKEYKCKVSNKALPKPIEKTISKAKGQPREPQVYTLPPSREEMTKNQVSLTCLVKGFYPSDIAVEWESNGQPENNYKTTPPVLDSDGSFFLYSKLTVDKSRWQQGNVFSCSVMHEALHNHYTQKSLSLSP
light: DIVMTQSPATLSLSPGERATLSCTSSQSVYHANWLSWFQQKPGQPPKLLIYWASTLAYGVPSRFSGSGSGTDFTLTISSLQPEDAATYYCAGGYGGGRYAFGQGTKVEIKRTVAAPSVFIFPPSDEQLKSGTASVVCLLNNFYPREAKVQWKVDNALQSGNSQESVTEQDSKDSTYSLSSTLTLSKADYEKHKVYACEVTHQGLSSPVTKSFNRGEC
notes: as for B2
B6: M103205H795-MY442/M103202L889-SK1 (antibody, human IgG1, kappa)
heavy: QVTLKESGPVLVKPTETLTLTCTVSGIDLSHDDISWVRQAPGKGLEWVGIISYAGSTYYASWAKGRLTISKDTSKNQVVLTMTNMDPVDTATYYCARGVPAYSHGGDLWGQGTLVTVSSASTKGPSVFPLAPSSKSTSGGTAALGCLVKDYFPEPVTVSWNSGALTSGVHTFPAVLQSSGLYSLSSVVTVPSSSLGTQTYICNVNHKPSNTKVDKKVEPKSCDKTHTCPPCPADELLTGPSVFLFPPKPKDTLMISRTPEVTCVVVDVSDEDPEVKFNWYVDGVEVHNAKTKPREEQYNSTYRVVSVLTVLHQDWLNGKEYKCKVSNKALPKPIEKTISKAKGQPREPQVYTLPPSREEMTKNQVSLTCLVKGFYPSDIAVEWESNGQPENNYKTTPPVLDSDGSFFLYSKLTVDKSRWQQGNVFSCSVMHEALHNHYTQKSLSLSP
light: DIVMTQSPATLSLSPGERATLSCTSSQSVYHANWLSWFQQKPGQPPKLLIYWASTLAYGVPSRFSGSGSGTDFTLTISSLQPEDAATYYCAGGYGGGRYAFGQGTKVEIKRTVAAPSVFIFPPSDEQLKSGTASVVCLLNNFYPREAKVQWKVDNALQSGNSQESVTEQDSKDSTYSLSSTLTLSKADYEKHKVYACEVTHQGLSSPVTKSFNRGEC
notes: as for B2

What was measured:
[1] = target: T1, cynomolgus monkey FcγRIIIaS …; test: SPR, KD(SG1)/KD(variant)
[2] = target: T2, cynomolgus monkey FcγRIIa3 …; test: SPR (Biacore), KD of SG1 / KD of variant
Method: (§1) The kinetic analysis of interactions between these antibodies and FcγR was carried out using BIACORE® T200 or BIACORE® 4000 (GE Healthcare). HBS-EP+ (GE Healthcare) was used as the running buffer, and the measurement temperature was set to 25° C. […] After the measurement, the antibody captured on the chip was washed off by allowing reaction with 10 mM glycine-HCl, pH1.5 and 25 mM NaOH so that the chip was regenerated and used repeatedly. The sensorgrams obtained as measurement results were analyzed by the 1:1 Langmuir binding model using the BIACORE® Evaluation Software to calculate the binding rate constant ka (L/mol/s) and dissociation rate constant kd (1/s), and the dissociation constant KD (mol/L) was calculated from these values. […] Regarding such interactions, KD values were calculated using the following 1:1 binding model described in BIACORE® T100 Software Handbook BR1006-48 Edition AE.

[3] = target: T3, human FcγRIIaR extracellular domain …; test: SPR (Biacore), antibody captured, FcgR analyte
Method: as §1

[4] = target: T4, cynomolgus monkey FcγRIIa2 …; test: SPR (Biacore), KD of SG1 / KD of variant
Method: as §1

[5] = target: T5, cynomolgus monkey FcγRIIb extracellular …; test: SPR (Biacore), KD of SG1 / KD of variant
Method: as §1

Binder	KD fold (SG1 = 1) [2]	Kd [3]	KD fold (SG1 = 1) [4]	KD fold (SG1 = 1) [5]	further results
B1					KD fold (SG1 = 1) [1]: 0.23 fold
B2	2.5 fold	640 nM			
B3	3.5 fold		1.8 fold	2.5 fold	
B4				3.5 fold	
B5		1100 nM	0.5 fold		
B6				1 fold	
